Data as given in US20110123554A1 (BIOTEST, published 2011).
“And” between values parts separate entries of the source, which are not always exact repeats. Equal values may be shown once.

T1: CD138 on the cell surface (human, UniProt P18827 23-310)
T1 sequence (looked up): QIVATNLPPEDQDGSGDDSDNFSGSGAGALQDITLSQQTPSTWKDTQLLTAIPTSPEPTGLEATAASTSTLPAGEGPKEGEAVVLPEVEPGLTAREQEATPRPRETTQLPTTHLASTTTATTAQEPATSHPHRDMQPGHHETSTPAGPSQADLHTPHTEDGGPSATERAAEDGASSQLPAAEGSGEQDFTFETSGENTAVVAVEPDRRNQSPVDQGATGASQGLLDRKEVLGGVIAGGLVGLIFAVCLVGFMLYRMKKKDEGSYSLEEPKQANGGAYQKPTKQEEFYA

T2: Soluble CD138 antigen from U-266 cell culture supernatant, biotinylated (human, UniProt P18827 23-245, limits assumed, biotinylated on primary amino groups with EZ-Link Sulfo-NHS-LC-Biotin)
T2 construct: Captured on a streptavidin SENSOR CHIP SA for the BIACORE assay; Soluble (shed) form; also called bCD138; biotinylated CD138
T2 sequence (looked up): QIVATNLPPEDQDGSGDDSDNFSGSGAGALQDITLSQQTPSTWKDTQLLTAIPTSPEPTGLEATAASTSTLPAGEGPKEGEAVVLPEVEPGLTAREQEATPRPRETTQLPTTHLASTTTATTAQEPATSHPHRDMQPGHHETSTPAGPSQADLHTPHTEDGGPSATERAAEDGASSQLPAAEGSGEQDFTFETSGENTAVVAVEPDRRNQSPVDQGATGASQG


Legend:
[1] = molecular target: T1, CD138 on the cell surface; experiment: cell-based or functional assay
[2] = molecular target: T1, CD138 on the cell surface; experiment: FACS on CD138+ OPM-2 cells, fluorescence-labelled secondary antibody, mean fluorescence against concentration
From the text: The cells were washed and CD138-bound antibody or conjugates were detected using a fluorescence-labeled secondary antibody in FACS analysis. The mean fluorescence measured in these experiments was plotted against the antibody concentration.

[3] = molecular target: T2, Soluble CD138 antigen from U-266 cell …; experiment: BIACORE C, biotinylated soluble CD138 on SA chip, conjugate as analyte; mean of three experiments
[4] = molecular target: T2, Soluble CD138 antigen from U-266 cell …; experiment: BIACORE C, biotinylated soluble CD138 on SA chip, conjugate as analyte; single experiment

Binder | EC50 (read off the curve) [2] | also measured
nBT062-SPDB-DM4 (antibody, human IgG4, kappa, V domains shown, maytansinoid DM4 linked by disulfide bond through SPDB linker; residues carrying the drug not stated) VH: QVQLQQSGSELMMPGASVKISCKATGYTFSNYWIEWVKQRPGHGLEWIGEILPGTGRTIYNEKFKGKATFTADISSNTVQMQLSSLTSEDSAVYYCARRDYYGNFYYAMDYWGQGTSVTVSS VL: DIQMTQSTSSLSASLGDRVTISCSASQGINNYLNWYQQKPDGTVELLIYYTSTLQSGVPSRFSGSGSGTDYSLTISNLEPEDIGTYYCQQYSKLPRTFGGGTKLEIKR |  | Sensitivity IC50 (nM), cell line NCI-H929 (MM) [1]: 0.38 nM
nBT062-SMCC-DM1 (antibody, human IgG4, kappa, V domains shown, maytansinoid DM1 linked through non-cleavable SMCC linker; residues carrying the drug not stated) VH: QVQLQQSGSELMMPGASVKISCKATGYTFSNYWIEWVKQRPGHGLEWIGEILPGTGRTIYNEKFKGKATFTADISSNTVQMQLSSLTSEDSAVYYCARRDYYGNFYYAMDYWGQGTSVTVSS VL: DIQMTQSTSSLSASLGDRVTISCSASQGINNYLNWYQQKPDGTVELLIYYTSTLQSGVPSRFSGSGSGTDYSLTISNLEPEDIGTYYCQQYSKLPRTFGGGTKLEIKR | ~1 nM | 
nBT062-SPP-DM1 (antibody, human IgG4, kappa, V domains shown, maytansinoid DM1 linked through SPP linker; residues carrying the drug not stated, an average of 3.5 DM1 per antibody is stated for nBT062-DM1 conjugates) VH: QVQLQQSGSELMMPGASVKISCKATGYTFSNYWIEWVKQRPGHGLEWIGEILPGTGRTIYNEKFKGKATFTADISSNTVQMQLSSLTSEDSAVYYCARRDYYGNFYYAMDYWGQGTSVTVSS VL: DIQMTQSTSSLSASLGDRVTISCSASQGINNYLNWYQQKPDGTVELLIYYTSTLQSGVPSRFSGSGSGTDYSLTISNLEPEDIGTYYCQQYSKLPRTFGGGTKLEIKR | ~1 nM | 
B-B4-SPP-DM1 (antibody, V domains shown, maytansinoid DM1 linked through SPP linker; residues carrying the drug not stated, Variable domains as for B-B4 (see its note)) VH: QVQLQQSGSELMMPGASVKISCKATGYTFSNYWIEWVKQRPGHGLEWIGEILPGTGRTIYNEKFKGKATFTADISSNTVQMQLSSLTSEDSAVYYCARRDYYGNFYYAMDYWGQGTSVTVSS VL: DIQMTQSTSSLSASLGDRVTISCSASQGINNYLNWYQQKPDGTVELLIYYTSTLQSGVPSRFSGSGSGTDYSLTISNLEPEDIGTYYCQQYSKLPRTFGGGTKLEIK |  | Kd [3]: 2.6 nM; Kd [4]: 2.6 nM and 2.7 nM
nBT062 (antibody, human IgG4, kappa, V domains shown, also called cB-B4; chimeric B-B4) VH: QVQLQQSGSELMMPGASVKISCKATGYTFSNYWIEWVKQRPGHGLEWIGEILPGTGRTIYNEKFKGKATFTADISSNTVQMQLSSLTSEDSAVYYCARRDYYGNFYYAMDYWGQGTSVTVSS VL: DIQMTQSTSSLSASLGDRVTISCSASQGINNYLNWYQQKPDGTVELLIYYTSTLQSGVPSRFSGSGSGTDYSLTISNLEPEDIGTYYCQQYSKLPRTFGGGTKLEIKR | ~1 nM | 
